In paper PMC6477179, “FIP200 Claw Domain Binding to p62 Promotes Autophagosome Formation at Ubiquitin Condensates” (Molecular Cell, 2019):

B4: GFP-FIP200 CTR aa 1429-1594 (domain or fragment, human, UniProt Q8TDY2 1429-1594, looked up)
chain: ADEGRVDSAMETSMMSVQENIHMLSEEKQRIMLLERTLQLKEEENKRLNQRLMSQSMSSVSSRHSEKIAIRDFQVGDLVLIILDERHDNYVLFTVSPTLYFLHSESLPALDLKPGEGASGASRRPWVLGKVMEKEYCQAKKAQNRFKVPLGTKFYRVKAVSWNKKV
notes: FIP200 (RB1CC1), human, C-terminal region, residues 1429-1594; source: E. coli Rosetta (DE3) pLysS, purified (HisTrap, TEV, SEC); not shown: His6, N-terminal, cleaved; GFP, N-terminal, kept

Tests used:
[1] = molecular target: T1, GFP-FIP200 CTR aa 1458-1594 (human, UniProt Q8TDY2 1458-1594); test: microscopy-based protein-protein interaction assay (bait on beads); GST-tagged bait on glutathione Sepharose 4B beads, 2-5 μM fluorescently labeled prey not washed away (equilibrium), 25 mM HEPES pH 7.5, 150 mM NaCl, 1 mM DTT, 30 min to 1 h at room temperature or 4°C; confocal or spinning disk microscopy; settings: both partners purified
T1 construct: FIP200 (RB1CC1), human, C-terminal region, residues 1458-1594; also called GFP-FIP200 CTR WT; WT GFP-FIP200 CTR; source: E. coli Rosetta (DE3) pLysS, purified (HisTrap, TEV, SEC); not shown: His6, N-terminal, cleaved; GFP, N-terminal, kept

[2] = molecular target: T2, FITC-labeled full-length FIP200 (FITC-FIP200-MBP) (human, UniProt Q8TDY2 1-1594, FITC-LPETGG peptide joined to the N-terminal glycine by Δ59SortaseA (FITC on the N-terminus)); test: as above; settings: both partners purified
T2 construct: FIP200 (RB1CC1), human, full length; pCAG vector; also called Gly-FIP200-MBP; source: HEK293-GnT1 suspension cells, purified (Glutathione Sepharose, TEV, amylose resin, Superose 6); not shown: GST, N-terminal, cleaved; MBP, C-terminal, kept

GFP-FIP200 CTR N1517F = molecular target: T3, GFP-FIP200 CTR N1517F (human, UniProt Q8TDY2 1458-1594, N1517F); test: as above; settings: both partners purified
T3 construct: FIP200 (RB1CC1), human, C-terminal region, residues 1458-1594; source: E. coli Rosetta (DE3) pLysS, purified (HisTrap, TEV, SEC); not shown: His6, N-terminal, cleaved; GFP, N-terminal, kept

mCherry-p62 LIRmut = molecular target: T4, mCherry-p62 LIRmut (human, UniProt Q13501 1-440, residues 335-338 are mutated to Ala); test: as above; settings: both partners purified
T4 construct: p62/SQSTM1, human, full length, LIR motif mutated; also called the LIR mutant; source: E. coli, purified as previously described (Wurzer et al., 2015)

mCherry-p62 wt [3] = molecular target: T5, mCherry-p62 wt (human, UniProt Q13501 1-440); test: as above; settings: both partners purified
T5 construct: p62/SQSTM1, human, full length; also called full-length mCherry-p62 WT; source: E. coli, purified as previously described (Wurzer et al., 2015)

mCherry-p62 wt [4] = molecular target: T5, mCherry-p62 wt; test: microscopy-based protein-protein interaction assay (bait on beads); GSH beads coated with GST-2x ubiquitin, excess washed off, incubated with mCherry-p62 (2 μM) and GFP-FIP200 CTR (5 μM) for 1 h, imaged by microscopy; settings: both partners purified
[5] = molecular target: the molecule itself; test: SEC with right-angle light scattering; 100 μl of 3 mg/ml FIP200 CTR on Superdex S75 10/300 with RALS-refractive index detector; 25 mM HEPES pH 7.5, 150 mM NaCl
[6] = molecular target: the molecule itself; test: crystal structure; FIP200 Claw aa 1494-1594, SeMet crystal, 1.56 Å, space group C2221, one monomer in the asymmetric unit; 0.1 M HEPES pH 7.4, 2 M ammonium sulfate
[7] = molecular target: B4; test: microscopy-based protein-protein interaction assay (bait on beads); GST-tagged bait on glutathione Sepharose 4B beads, 2-5 μM fluorescently labeled prey not washed away (equilibrium), 25 mM HEPES pH 7.5, 150 mM NaCl, 1 mM DTT, 30 min to 1 h at room temperature or 4°C; confocal or spinning disk microscopy; settings: both partners purified

B1: GST-p62 FIR 3P (domain or fragment, human, UniProt Q13501 326-380, looked up)
chain: MESDNCSGGDDDWTHLSSKEVDPSTGELQSLQMPESEGPDDLDPDQEGPTGLKEA
notes: also called 3P (S365D, S366D, S370D); triple mutant; source: E. coli Rosetta (DE3) pLysS, purified (GSTrap, SEC)
- binding result [1]: binds

B2: GST-p62 FIR 4P (domain or fragment, human, UniProt Q13501 326-380, looked up)
chain: MESDNCSGGDDDWTHLSSKEVDPDTGELQSLQMPESEGPDDLDPDQEGPTGLKEA
notes: also called 4P (S349D, S365D, S366D, S370D); quadruple mutant; source: E. coli Rosetta (DE3) pLysS, purified (GSTrap, SEC)
- binding result [2]: binds
- binding result [1]: binds
- binding result (GFP-FIP200 CTR N1517F): binds

B3: GST-FIP200 CTR aa 1429-1594 (domain or fragment, human, UniProt Q8TDY2 1429-1594, looked up)
chain: ADEGRVDSAMETSMMSVQENIHMLSEEKQRIMLLERTLQLKEEENKRLNQRLMSQSMSSVSSRHSEKIAIRDFQVGDLVLIILDERHDNYVLFTVSPTLYFLHSESLPALDLKPGEGASGASRRPWVLGKVMEKEYCQAKKAQNRFKVPLGTKFYRVKAVSWNKKV
notes: FIP200 (RB1CC1), human, C-terminal region, residues 1429-1594; cloned in pGEX 4T1; also called FIP200 C-terminal region (CTR); source: E. coli Rosetta (DE3) pLysS, purified (GSTrap, SEC)
- binding result (mCherry-p62 LIRmut): binds
- binding result (mCherry-p62 wt [3]): binds

Binder: B4
- binding result (mCherry-p62 wt [4]): binds

B5: FIP200 CTR (aa 1458-1594) (domain or fragment, human, UniProt Q8TDY2 1458-1594, looked up)
chain: RIMLLERTLQLKEEENKRLNQRLMSQSMSSVSSRHSEKIAIRDFQVGDLVLIILDERHDNYVLFTVSPTLYFLHSESLPALDLKPGEGASGASRRPWVLGKVMEKEYCQAKKAQNRFKVPLGTKFYRVKAVSWNKKV
notes: FIP200 (RB1CC1), human, C-terminal region, residues 1458-1594; source: E. coli Rosetta2 (DE3), purified (Ni-NTA, TEV, Superdex S75); not shown: His6, N-terminal, cleaved
- stoichiometry N [5]: 2

B6: FIP200 Claw (aa 1494-1594) (domain or fragment, human, UniProt Q8TDY2 1494-1594, looked up)
chain: EKIAIRDFQVGDLVLIILDERHDNYVLFTVSPTLYFLHSESLPALDLKPGEGASGASRRPWVLGKVMEKEYCQAKKAQNRFKVPLGTKFYRVKAVSWNKKV
modifications: selenomethionine-substituted (crystal)
notes: FIP200 (RB1CC1), human, Claw domain, residues 1494-1594; one monomer in the asymmetric unit, dimer by a crystallographic 2-fold; also called isolated Claw domain; FIP200 Claw domain; source: E. coli BL21(DE3), purified (Ni-NTA, TEV, Superdex 75)
- binding result [6]: binds

B7: GST-p62 aa334-356 (domain or fragment, human, UniProt Q13501 334-356, looked up)
chain: GDDDWTHLSSKEVDPSTGELQSL
notes: p62/SQSTM1, human, residues 334-356; also called pGEX-p62 aa334-356; source: E. coli Rosetta (DE3) pLysS, purified (GSTrap, SEC)
- binding result [7]: binds
